# Assay results as given in the Human Domainome abundance scans (Beltran et al. 2025).
# ± gives the uncertainty stated by the source.
# B1: POU domain, class 4, transcription factor 3, residues 185 to 256; numbered along this chain, Q15319 (parent)
# chain: RELEAFAERFKQRRIKLGVTQADVGAALANLKIPGVGSLSQSTICRFESLTLSHNNMIALKPVLQAWLEEAE
# Variants of: B1
# Assay: abundance fitness (aPCA) (normalised: wild type 0, dead -1); higher = more abundant; growth selection in yeast, the domain comes from the species named
# Conditions: Homo sapiens
row,Variant,abundance fitness
1,DELEAFAERFKQRRIKLGVTQADVGAALANLKIPGVGSLSQSTICRFESLTLSHNNMIALKPVLQAWLEEAE,-0.419 ± 0.17
2,LELEAFAERFKQRRIKLGVTQADVGAALANLKIPGVGSLSQSTICRFESLTLSHNNMIALKPVLQAWLEEAE,-0.125 ± 0.049
3,TELEAFAERFKQRRIKLGVTQADVGAALANLKIPGVGSLSQSTICRFESLTLSHNNMIALKPVLQAWLEEAE,-0.133 ± 0.13
4,CELEAFAERFKQRRIKLGVTQADVGAALANLKIPGVGSLSQSTICRFESLTLSHNNMIALKPVLQAWLEEAE,-0.229 ± 0.065
5,EELEAFAERFKQRRIKLGVTQADVGAALANLKIPGVGSLSQSTICRFESLTLSHNNMIALKPVLQAWLEEAE,-0.093 ± 0.1
6,SELEAFAERFKQRRIKLGVTQADVGAALANLKIPGVGSLSQSTICRFESLTLSHNNMIALKPVLQAWLEEAE,-0.109 ± 0.084
7,GELEAFAERFKQRRIKLGVTQADVGAALANLKIPGVGSLSQSTICRFESLTLSHNNMIALKPVLQAWLEEAE,0.002 ± 0.041
8,NELEAFAERFKQRRIKLGVTQADVGAALANLKIPGVGSLSQSTICRFESLTLSHNNMIALKPVLQAWLEEAE,-0.153 ± 0.2
9,FELEAFAERFKQRRIKLGVTQADVGAALANLKIPGVGSLSQSTICRFESLTLSHNNMIALKPVLQAWLEEAE,-0.142 ± 0.092
10,MELEAFAERFKQRRIKLGVTQADVGAALANLKIPGVGSLSQSTICRFESLTLSHNNMIALKPVLQAWLEEAE,-0.08 ± 0.1
11,AELEAFAERFKQRRIKLGVTQADVGAALANLKIPGVGSLSQSTICRFESLTLSHNNMIALKPVLQAWLEEAE,-0.282 ± 0.14
12,WELEAFAERFKQRRIKLGVTQADVGAALANLKIPGVGSLSQSTICRFESLTLSHNNMIALKPVLQAWLEEAE,-0.164 ± 0.052
13,KELEAFAERFKQRRIKLGVTQADVGAALANLKIPGVGSLSQSTICRFESLTLSHNNMIALKPVLQAWLEEAE,-0.226 ± 0.11
14,RELEEFAERFKQRRIKLGVTQADVGAALANLKIPGVGSLSQSTICRFESLTLSHNNMIALKPVLQAWLEEAE,-0.155 ± 0.26
15,RELECFAERFKQRRIKLGVTQADVGAALANLKIPGVGSLSQSTICRFESLTLSHNNMIALKPVLQAWLEEAE,-0.552 ± 0.3
16,RELEFFAERFKQRRIKLGVTQADVGAALANLKIPGVGSLSQSTICRFESLTLSHNNMIALKPVLQAWLEEAE,-0.605 ± 0.21
17,RELEGFAERFKQRRIKLGVTQADVGAALANLKIPGVGSLSQSTICRFESLTLSHNNMIALKPVLQAWLEEAE,-0.033 ± 0.085
18,RELFAFAERFKQRRIKLGVTQADVGAALANLKIPGVGSLSQSTICRFESLTLSHNNMIALKPVLQAWLEEAE,0.03 ± 0.055
19,RELKAFAERFKQRRIKLGVTQADVGAALANLKIPGVGSLSQSTICRFESLTLSHNNMIALKPVLQAWLEEAE,-0.125 ± 0.11
20,RELRAFAERFKQRRIKLGVTQADVGAALANLKIPGVGSLSQSTICRFESLTLSHNNMIALKPVLQAWLEEAE,0.041 ± 0.11
21,RELMAFAERFKQRRIKLGVTQADVGAALANLKIPGVGSLSQSTICRFESLTLSHNNMIALKPVLQAWLEEAE,0.01 ± 0.11
22,RELWAFAERFKQRRIKLGVTQADVGAALANLKIPGVGSLSQSTICRFESLTLSHNNMIALKPVLQAWLEEAE,-0.222 ± 0.043
23,RELLAFAERFKQRRIKLGVTQADVGAALANLKIPGVGSLSQSTICRFESLTLSHNNMIALKPVLQAWLEEAE,-0.214 ± 0.064

row,Variant,abundance fitness
1,RELCAFAERFKQRRIKLGVTQADVGAALANLKIPGVGSLSQSTICRFESLTLSHNNMIALKPVLQAWLEEAE,-0.17 ± 0.061
2,RELNAFAERFKQRRIKLGVTQADVGAALANLKIPGVGSLSQSTICRFESLTLSHNNMIALKPVLQAWLEEAE,-0.11 ± 0.096
3,RELGAFAERFKQRRIKLGVTQADVGAALANLKIPGVGSLSQSTICRFESLTLSHNNMIALKPVLQAWLEEAE,-0.197 ± 0.033
4,RELIAFAERFKQRRIKLGVTQADVGAALANLKIPGVGSLSQSTICRFESLTLSHNNMIALKPVLQAWLEEAE,0.113 ± 0.077
5,RELYAFAERFKQRRIKLGVTQADVGAALANLKIPGVGSLSQSTICRFESLTLSHNNMIALKPVLQAWLEEAE,-0.125 ± 0.07
6,RESEAFAERFKQRRIKLGVTQADVGAALANLKIPGVGSLSQSTICRFESLTLSHNNMIALKPVLQAWLEEAE,-0.359 ± 0.36
7,REMEAFAERFKQRRIKLGVTQADVGAALANLKIPGVGSLSQSTICRFESLTLSHNNMIALKPVLQAWLEEAE,-0.261 ± 0.093
8,REQEAFAERFKQRRIKLGVTQADVGAALANLKIPGVGSLSQSTICRFESLTLSHNNMIALKPVLQAWLEEAE,-0.227 ± 0.13
9,REYEAFAERFKQRRIKLGVTQADVGAALANLKIPGVGSLSQSTICRFESLTLSHNNMIALKPVLQAWLEEAE,-0.192 ± 0.1
10,RETEAFAERFKQRRIKLGVTQADVGAALANLKIPGVGSLSQSTICRFESLTLSHNNMIALKPVLQAWLEEAE,-0.109 ± 0.18
11,REKEAFAERFKQRRIKLGVTQADVGAALANLKIPGVGSLSQSTICRFESLTLSHNNMIALKPVLQAWLEEAE,-0.482 ± 0.083
12,REEEAFAERFKQRRIKLGVTQADVGAALANLKIPGVGSLSQSTICRFESLTLSHNNMIALKPVLQAWLEEAE,-0.395 ± 0.33
13,REVEAFAERFKQRRIKLGVTQADVGAALANLKIPGVGSLSQSTICRFESLTLSHNNMIALKPVLQAWLEEAE,0.074 ± 0.13
14,REIEAFAERFKQRRIKLGVTQADVGAALANLKIPGVGSLSQSTICRFESLTLSHNNMIALKPVLQAWLEEAE,0.065 ± 0.07
15,RENEAFAERFKQRRIKLGVTQADVGAALANLKIPGVGSLSQSTICRFESLTLSHNNMIALKPVLQAWLEEAE,-0.605 ± 0.12
16,RILEAFAERFKQRRIKLGVTQADVGAALANLKIPGVGSLSQSTICRFESLTLSHNNMIALKPVLQAWLEEAE,-0.664 ± 0.37
17,RPLEAFAERFKQRRIKLGVTQADVGAALANLKIPGVGSLSQSTICRFESLTLSHNNMIALKPVLQAWLEEAE,-0.345 ± 0.13
18,RNLEAFAERFKQRRIKLGVTQADVGAALANLKIPGVGSLSQSTICRFESLTLSHNNMIALKPVLQAWLEEAE,-0.207 ± 0.14
19,RHLEAFAERFKQRRIKLGVTQADVGAALANLKIPGVGSLSQSTICRFESLTLSHNNMIALKPVLQAWLEEAE,-0.221 ± 0.17
20,RKLEAFAERFKQRRIKLGVTQADVGAALANLKIPGVGSLSQSTICRFESLTLSHNNMIALKPVLQAWLEEAE,-0.121 ± 0.26
21,RLLEAFAERFKQRRIKLGVTQADVGAALANLKIPGVGSLSQSTICRFESLTLSHNNMIALKPVLQAWLEEAE,-0.421 ± 0.04
22,RDLEAFAERFKQRRIKLGVTQADVGAALANLKIPGVGSLSQSTICRFESLTLSHNNMIALKPVLQAWLEEAE,0.075 ± 0.03
23,RMLEAFAERFKQRRIKLGVTQADVGAALANLKIPGVGSLSQSTICRFESLTLSHNNMIALKPVLQAWLEEAE,-0.437 ± 0.13
